{
  "source": "patent US20110319338A1",
  "about": "“PEPTIDES THAT BIND EUKARYOTIC TRANSLATION INITIATION FACTOR 4E” (The Board of Regents of the University of Texas System, priority 2008, published 2011)",
  "test_system": "ES-2-GFP cells",
  "experiment": "Mouse i.p. xenograft model of epithelial ovarian cancer",
  "type": "in vivo",
  "experimental": "FIGS. 4A-4C. Anti-tumor activity of [DLys6]GnRH-4EBP1-WT peptide in a xenograft model of EOC. Female nude mice were inoculated i.p. with one million ES-2-GFP cells. At Day 9 after tumor cell inoculation, one group of mice (n=5) was sacrificed (pre-treatment). At Day 9, other groups of mice were administered by i.p. injection with saline (n=11), [DLys6]GnRH (n=11) or [DLys6]GnRH-4EBP1-WT (n=11) at a dose of 3.0 nanomoles per gram body weight Saline or peptide was administered every 2 days thereafter for 11 days (6 doses in total), and mice were sacrificed on Day 20. (FIG. 4A) Visualization under a fluorescence stereoscope of i.p. tumors in pre-treatment mice (at Day 9) including implants on the omentum (ome), and in mice treated with saline, with agonist alone and with [DLys6]GnRH-4EBP1-WT (at Day 20). (FIG. 4B) Hematoxylin eosin-stained sections of tissues of pre-treatment mice (at Day 9) and of saline- and peptide-treated mice (at Day 20). Tumors attached to the omentum extensively involved the pancreas in saline- and agonist-treated mice. Also shown are tumors attached to the broad ligament and mesentery. Bar, 200 micrometers. (FIG. 4C) Quantification of i.p. tumor burden in pre-treatment and treated mice that completed the regimen, expressed as the average percent of area of fluorescence within the abdominal cavity in captured images, and volume of ascites. Median values of tumor burden and ascites volume for each group and statistical significance of differences between groups are indicated.\nAnimal Studies. Animal studies were approved by the Institutional Animal Care and Use Committee. The ES-2 cell line stably expressing enhanced green fluorescent protein (ES-2-GFP) has been described in previous work (Hara et al., 2007). Four-week-old female nude mice were inoculated i.p. at one site in the lower abdomen with 10^6 ES-2-GFP cells. At Day 9 after tumor cell inoculation, one group of mice (n=5) were killed by CO2 asphyxiation. At Day 9, other groups of mice were administered by i.p. injection with 200 microliters of phosphate-buffered saline (PBS) (n=11), [DLys6]GnRH (n=11) or [DLys6]GnRH-4EBP1-WT peptide (n=11) at a dose of 3.0 nanomoles per gram body weight. Peptides were suspended in PBS and administered at a volume of 200 microliters. PBS or peptide was administered every 2 days thereafter for 11 days (6 doses in total). Mice were sacrificed on Day 20, and ascites harvested. Tumors were visualized under a Leica MZML III fluorescence stereomicroscope equipped with mercury lamp power supply and green fluorescent protein (GFP) filter set. Tumor burden was quantified by measuring areas of fluorescence signals within the abdominal cavity in captured images by using Image Pro Plus 5.0 software (Media Cybernetics, Bethesda, Md.). Slides of paraffin-embedded tissues collected from mice were stained with hematoxylin-eosin. TUNEL-staining of tissue sections was performed using the in situ cell death detection kit (Roche).\nTo determine the efficacy of [DLys6]GnRH-4EBP1-WT peptide in vivo, a mouse i.p. xenograft model was used that was established from an ES-2 cell line stably expressing GFP (Hara et al., 2007). This model mimics the typical behavior of epithelial ovarian cancer, including i.p. dissemination and ascites formation. This example comprised three treatment groups of mice i) saline, ii) [DLys6]GnRH agonist, and iii) [DLys6]GnRH-4EBP1-WT, where sample size of each group was n=11. The first dose of peptide or saline was administered i.p. to mice at Day 9 after tumor cell inoculation. At Day 9, no ascites had yet formed but tumors had established on the omentum, broad ligament and mesentery which are common sites of ovarian cancer cell attachment (FIGS. 4A,B). A schedule in which peptide was administered every 2 days was chosen, based on the studies of peptide stability in serum (FIG. 6).\nBased on studies of other agonist conjugates in xenograft models (19-21), a peptide dose of 3.0 nanomoles per gram body weight was used. […]",
  "key": {"[1]": {"conditions": "drop-out mice, individual animals"}},
  "note": "Square brackets hold non-standard residues; d marks the D form. Ends that are not written are not given here.",
  "data": [
    {"substance": "[DLys6]GnRH: GnRH agonist with a D-amino acid substitution at position 6; GnRH-RI-targeting moiety (QHWSY[dK]LRPG; not fully specified (residue 1, C-terminus); ends and bridges not checked)", "values": [
      {"measurement": "Ascites volume", "setting": "[1]", "value": 8.9, "unit": "mL"},
      {"measurement": "Percent i.p. tumor burden", "setting": "[1]", "value": 40.9, "unit": "%"},
      {"measurement": "i.p. tumor burden, percent of the abdominal cavity (mean)", "setting": "mice that completed regimen, Day 20, 3.0 nanomoles per gram body weight i.p. every 2 days, 6 doses", "value": 56.4, "unit": "%"},
      {"measurement": "Drop-outs (euthanized prior to completion due to morbidity related to ascites accumulation)", "setting": "mouse, in vivo", "value": 1},
      {"measurement": "Mice euthanized, day", "setting": "mouse, in vivo", "value": "n = 1, day 16"},
      {"measurement": "day of death before completing treatment regimen", "setting": "mouse, in vivo", "value": 17, "unit": "days"},
      {"measurement": "Deaths (died before completing treatment regimen)", "setting": "of 11 mice per group", "value": 2}
    ]}
  ]
}
